Test results reported in PMC7367173.
Substitutions are numbered along the chain they refer to.

T1: ProQ NTD (FinO domain) (Escherichia coli, UniProt P45577 1-130)
T1 sequence: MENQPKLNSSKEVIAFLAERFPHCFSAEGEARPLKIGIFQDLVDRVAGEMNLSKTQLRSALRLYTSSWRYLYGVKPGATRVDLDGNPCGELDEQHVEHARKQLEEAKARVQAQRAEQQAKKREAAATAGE

T2: ProQ full-length (Escherichia coli, UniProt P45577 1-232)
T2 sequence: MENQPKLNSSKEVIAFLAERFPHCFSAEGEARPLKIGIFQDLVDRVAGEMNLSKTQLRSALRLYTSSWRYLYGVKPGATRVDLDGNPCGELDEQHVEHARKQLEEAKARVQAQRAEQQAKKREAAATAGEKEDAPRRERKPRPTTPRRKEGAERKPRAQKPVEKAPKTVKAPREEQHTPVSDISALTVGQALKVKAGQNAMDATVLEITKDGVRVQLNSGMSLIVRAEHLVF

B1: infA-3'-AtoU (structured_RNA)
RNA: GUCGCUGAUUGUUUUACCGCCUGAUGGGCGAAGAGAAAGAACGAGUUUUUGGUCGGUUUAACCGGCCUUUUUAU
B2: cspE-3' (structured_RNA)
RNA: GUAAGAUACGUCAGCAAGAAUUCAAAACCCGCUUAAUCAGCGGGUUUUUUUU
B3: cspE-3'-AtoU (structured_RNA)
RNA: B2 RNA with A24U, A25U, A26U, A27U
B4: gapA-3'-AtoU (structured_RNA)
RNA: GGACCUGAUCGCUCACAUCUCCAAAUAAGUUGAGAUGACACUGUGAUCUUUUUUGAGCGACUUCGGUCGCUCUUUUUUUU
B5: hupA-5'-mut (structured_RNA)
RNA: GCGAAAAAAAGUGGCUAUCGGUGCGUGUAUGCAGGAGAGUGCUAUUCUGGCAUUUCCGUCGCACUCGAUGCUUAGCAAGCGAUAAACACAUCGUAAGGAUAACUUACGUUUU
B6: cspE81-3' (structured_RNA)
RNA: GGCCCUUCUGCUGCAAACGUAAUCGCUCUGUAAGAUACGUCAGCAAGAAUUCAAAACCCGCUUAAUCAGCGGGUUUUUUUU
B7: cspE81-3'-AtoU (structured_RNA)
RNA: B6 RNA with A53U, A54U, A55U, A56U
B8: hupB-3'-RtoU (structured_RNA)
RNA: GGUAAACUAAGCGUUGUCCCCAGUGGGGAUGUGACGAAGUUCUUUGGCGCAUCUACUGAUGUGCCUUUUUU
B9: malM-3'-4U (structured_RNA)
RNA: GCUUUAUCAGCAGUGUAAAAGGCAAGGGGUAAUUACGCCCCACAGUGCUGAUUUUGCAACAACUGGUGCGUCUCCUGGCGCACCUUUU
B10: malM-3'-bulge (structured_RNA)
RNA: GCUUUAUCAGCAGUGUAAAAGGCAAGGGGUAAUUACGCCCCACAGUGCUGAUUUUGCAACAACUGGUGAAACGUCUCCUGGCGCACCUUUUUUU
B11: malM-3'-AA (structured_RNA)
RNA: GCUUUAUCAGCAGUGUAAAAGGCAAGGGGUAAUUACGCCCCACAGUGCUGAUUUUGCAACAACUGGUAAGUCUCCUGGCAAACCUUUUUUU
B12: malM-3' (structured_RNA)
RNA: B11 RNA with A68G, A69C, A80G, A81C
B13: malM-3'-AtoU (structured_RNA)
RNA: B11 RNA with A58U, A59U, A61U, A62U, A68G, A69C, A80G, A81C
B14: malM-3'-UU (structured_RNA)
RNA: B11 RNA with A68U, A69U, A80U, A81U
B15: malM-3'-6U (structured_RNA)
RNA: GCUUUAUCAGCAGUGUAAAAGGCAAGGGGUAAUUACGCCCCACAGUGCUGAUUUUGCAACAACUGGUGCGUCUCCUGGCGCACCUUUUUU
B16: malM-3'-5U (structured_RNA)
RNA: GCUUUAUCAGCAGUGUAAAAGGCAAGGGGUAAUUACGCCCCACAGUGCUGAUUUUGCAACAACUGGUGCGUCUCCUGGCGCACCUUUUU
B17: lpp-5'-mut (structured_RNA)
RNA: GCUACAUGGAGAUUAACUCAAUCUAGAGGGUAUUAAUAAUGAAAGCUACUAAACUGGUACUGGGCGCGGUAAUCCCGCGCCCUUUU

How the values were obtained:
Hfq = Hfq (Escherichia coli, UniProt P0A6X3 1-102); assay: filter binding
Hfq, sequence (P0A6X3 whole entry, the tested form may be a part): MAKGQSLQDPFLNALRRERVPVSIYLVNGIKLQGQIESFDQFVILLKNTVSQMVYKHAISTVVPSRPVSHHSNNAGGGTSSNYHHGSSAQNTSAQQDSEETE

ProQ NTD (FinO domain) = molecular target: T1, ProQ NTD (FinO domain); assay: EMSA
ProQ full-length = molecular target: T2, ProQ full-length; assay: EMSA

Row | Binder | Kd (Hfq) [µM] | Kd (ProQ NTD (FinO domain)) [µM] | Kd (ProQ full-length) [µM]
1 | B1 | 0.0012 ± 0.00055 | 0.032 ± 0.013 | 
2 | B2 |  | 0.0045 ± 0.0015 | 0.013 ± 0.0045
3 | B3 | 0.0017 ± 0.00088 | 0.1 ± 0.051 | 
4 | B4 |  | 0.018 | 
5 | B5 |  | 0.016 ± 0.0047 | 0.014 ± 0.008
6 | B6 | 0.047 ± 0.011 | 0.0076 ± 0.0045 | 
7 | B7 |  | 0.017 ± 0.0046 | 
8 | B8 | 0.0019 ± 0.00075 | 0.029 ± 0.0072 | 
9 | B9 |  | 0.027 ± 0.011 | 
10 | B10 |  | 0.009 ± 0.0025 | 
11 | B11 |  | 0.0066 ± 0.0014 | 
12 | B12 | 0.022 ± 0.007 | 0.012 ± 0.0048 | 0.012 ± 0.0053
13 | B13 |  | 0.005 ± 0.0018 | 
14 | B14 |  | 0.0087 ± 0.0021 | 
15 | B15 |  | 0.0078 ± 0.0012 | 
16 | B16 |  | 0.0097 ± 0.0015 | 
17 | B17 |  |  | 0.003 ± 0.0013
